In PMC4376263 (International Journal of Nanomedicine, 2015):
Several values for one entry are separate records, joined by “and”; a condition that tells them apart may be missing. Equal entries are not always repeated. Where two headings read alike, the source gives them in different places.

Key:
[1] = system: murine colon adenocarcinoma cell line CT26; test: In vitro cytotoxicity; assay type: cell-based; conditions: for fold more potent than CPT-11: ratio of IC50 values
CT26 tumor xenograft = assay type: in vivo, BALB/c mice; conditions: for Body weight Final / Body weight Initial / IRT (inhibition ratio of the tumor) / Tumor weight Mean ± SD: n=8; for Histological section examination of tumor (H&E): day 14
[2] = Critical micelle concentration; assay type: physicochemical; conditions: aqueous medium, coumarin-6 probe
[3] = Particle size and zeta potential of micelles; assay type: physicochemical; conditions: 25°C, n=3
Drug-loading measurement = assay type: physicochemical; conditions: weight of SN38 / weight of prodrug, HPLC with UV detector, triplicate
[4] = In vitro drug release by dialysis; assay type: physicochemical; conditions: by 48 hours, 37°C, pH 6.5 PBS, pH 7.4 PBS, 25% liver homogenate, 50% plasma; P<0.05
[5] = Pharmacokinetic study after intravenous administration to SD rats; conditions: n=6; for Cmax of free SN38: free SN38 in plasma, intravenous 10 mg/kg (equivalent to SN38); for AUC0–24 of prodrug / Cmax of prodrug: prodrug form in plasma (equivalent to SN38); for AUC0–24 of prodrug / Cmax of prodrug / CL of prodrug / MRT0–24 of prodrug / T1/2 of prodrug: intravenous 10 mg/kg; for CL of prodrug / MRT0–24 of prodrug / T1/2 of prodrug: prodrug form in plasma
[6] = 2.5 mg/kg (equivalent to SN38) i.v. every 2 days for 2 weeks
[7] = CT26 cells, 48 hours incubation, MTT, equivalent to SN38, mean ± SD, n=3
[8] = 1.25 mg/kg (equivalent to SN38) i.v. every 2 days for 2 weeks

Row | Molecule | IC50 ([1]; Mus musculus, CT26, 48 h) [nM] | Body weight Final (CT26 tumor xenograft; [6]) [g] | Body weight Initial (CT26 tumor xenograft; [6]) [g] | IRT (inhibition ratio of the tumor) (CT26 tumor xenograft; [6]) | Tumor weight Mean ± SD (CT26 tumor xenograft; [6]) [g] | Histological section examination of tumor (H&E) (CT26 tumor xenograft; 2.5 mg/kg) | IC50 [1, 7] [nM] | fold more potent than CPT-11 ([1]; CT26 cells) [fold] | Body weight Final (CT26 tumor xenograft; [8]) [g] | Body weight Initial (CT26 tumor xenograft; [8]) [g] | IRT (inhibition ratio of the tumor) (CT26 tumor xenograft; [8]) [%] | Tumor weight Mean ± SD (CT26 tumor xenograft; [8]) [g] | Histological section examination of tumor (H&E) (CT26 tumor xenograft; 1.25 mg/kg) | CMC (critical micelle concentration) [2] [µg/mL] | mean particle size [3] [nm] | mean zeta potential [3] [mV] | drug loading (Drug-loading measurement) | Cmax of free SN38 [5] | AUC0–24 of prodrug [5] | Cmax of prodrug [5] | also measured
1 | CCc1c2c(nc3ccc(OC(=O)N4CCC(N5CCCCC5)CC4)cc13)-c1cc3c(c(=O)n1C2)COC(=O)[C@]3(O)CC [CPT-11, irinotecan, reference compound] | 46700 | 23.6 ± 1.67 | 19.8 ± 1.73 | 23.5% | 2.51 ± 0.36 | Partial tumor tissue necrosis | – | – | – | – | – | – | – | – | – | – | – | – | – | – | –
2 | chitosan-(C20-OH)SN38 [CS-(20s)SN38] | – | 21.5 ± 2.52 | 19.6 ± 1.57 | 64.7% and 64.7 ^a, ^c, ^d % | 1.15 ± 0.09 | extensive tissue necrosis | 1800 | 25.9 | 24.1 ± 1.31 | 20.6 ± 1.31 | 31 | 2.24 ± 0.27 | Partial tumor tissue necrosis | 12 | 122.4±1.1 | 22.3±0.4 | 17.4%±0.8% | 2,489.43±153.63 μg/L | 133.07±11.10 ×10^3 μg⋅h/L | 48.43±4.27 ×10^3 μg/L | drug release compared with CS-(10s)SN38 [4]: slower drug release; CL of prodrug [5]: 1.2 ± 0.17 mL/min/kg; MRT0–24 of prodrug [5]: 4.94 ± 1.58 h; T1/2 of prodrug [5]: 7.05 ± 2.04 h
3 | chitosan-(C10-OH)SN38 [CS-(10s)SN38] | – | 22.7 ± 1.96 | 20.4 ± 2.11 | 47.8 ^a, ^b % | 1.71 ± 0.21 | extensive tissue necrosis | 3500 | 13.3 | 24.6 ± 1.24 | 20.0 ± 1.73 | 27.7 | 2.37 ± 0.19 | Partial tumor tissue necrosis | 15 | 128.0±1.8 | 21.1±0.5 | 16.5%±0.7% | 3,057.78±637.61 μg/L | 89.84±8.01 ×10^3 μg⋅h/L | 46.89±6.56 ×10^3 μg/L | CL of prodrug [5]: 1.83 ± 0.17 mL/min/kg; MRT0–24 of prodrug [5]: 4.90 ± 0.66 h; T1/2 of prodrug [5]: 5.40 ± 1.29 h
4 | CCc1c2c(nc3ccc(O)cc13)-c1cc3c(c(=O)n1C2)COC(=O)[C@]3(O)CC [SN38, 7-Ethyl-10-hydroxycamptothecin, reference compound] | 20.4 ± 1.8 | – | – | – | – | – | – | – | – | – | – | – | – | – | – | – | – | – | – | – | –
